From patent US20190194326A1 (UBI US, published 2019)

Target: human CD4, membrane-bound on the surface of cells (human, UniProt P01730 26-458)
Assay: cell-based or functional assay

B1: murine monoclonal antibody B4 (mAb B4) (antibody, V domains shown)
VH: QVQLQQSGPELVKPGASVRMSCKASGYTFTDYVIHWVKQRTGQGLEWIGEIYPGSGSAYSNAKFKDKATLTADKSSNTAYMQLSSLTSEDSAVYFCARRGNGTGFAYWGQGTLVTVSA
VL: DIVLTQSPASLAVSLGQRATISCKAGQSVDYDGDSYMNWYQQKPGQPPKLLIYVASNLESGIPARFSGSGSGTDFTLNIHPVEEEDAATYYCQQSYKDPLTFGAGTKLELK
- IC50, HIV entry inhibition (PhenoSense), control virus 92HT594: 0.021 µg/mL
- IC50, HIV entry inhibition (PhenoSense), control virus JRCSF: 0.034 µg/mL
- IC50, HIV entry inhibition (PhenoSense), control virus JRFL: 0.074 µg/mL
- IC50, HIV entry inhibition (PhenoSense), isolate 92/RW/008, clade A: 0.026 µg/mL
- IC50, HIV entry inhibition (PhenoSense), isolate 92/RW/024, clade A: 0.055 µg/mL
- IC50, HIV entry inhibition (PhenoSense), isolate 92/TH/005, clade EA: 0.012 µg/mL
- IC50, HIV entry inhibition (PhenoSense), isolate 92/TH/006, clade EA: 0.022 µg/mL
- IC50, HIV entry inhibition (PhenoSense), isolate 92/TH/007, clade EA: 0.013 µg/mL
- IC50, HIV entry inhibition (PhenoSense), isolate 92/TH/009, clade EA: 0.021 µg/mL
- IC50, HIV entry inhibition (PhenoSense), isolate 92/TH/019, clade EA: 0.022 µg/mL
- IC50, HIV entry inhibition (PhenoSense), isolate 92/TH/020, clade EA: 0.015 µg/mL
- IC50, HIV entry inhibition (PhenoSense), isolate 92/TH/021, clade EA: 0.017 µg/mL
- IC50, HIV entry inhibition (PhenoSense), isolate 92/TH/022, clade EA: 0.012 µg/mL
- IC50, HIV entry inhibition (PhenoSense), isolate 92/TH/024, clade EA: 0.01 µg/mL
- IC50, HIV entry inhibition (PhenoSense), isolate 92/UG/001, clade D: 0.018 µg/mL
- IC50, HIV entry inhibition (PhenoSense), isolate 92/UG/005, clade D: 0.019 µg/mL
- IC50, HIV entry inhibition (PhenoSense), isolate 92/UG/021, clade D: 0.017 µg/mL
- IC50, HIV entry inhibition (PhenoSense), isolate 92/UG/024, clade D: 0.04 µg/mL
- IC50, HIV entry inhibition (PhenoSense), isolate 92/UG/035, clade D: 0.011 µg/mL
- IC50, HIV entry inhibition (PhenoSense), isolate 92/UG/038, clade D: 0.014 µg/mL
- IC50, HIV entry inhibition (PhenoSense), isolate 92/UG/046, clade D: 0.015 µg/mL
- IC50, HIV entry inhibition (PhenoSense), isolate 92/UG/053, clade D: 0.02 µg/mL
- IC50, HIV entry inhibition (PhenoSense), isolate 92/UG/065, clade D: 0.015 µg/mL
- IC50, HIV entry inhibition (PhenoSense), isolate 93/BR/019, clade BF: 0.013 µg/mL
- IC50, HIV entry inhibition (PhenoSense), isolate 93/BR/020, clade F: 0.024 µg/mL
- IC50, HIV entry inhibition (PhenoSense), isolate 93/IN/101, clade C: 0.016 µg/mL
- IC50, HIV entry inhibition (PhenoSense), isolate 93/RW/029, clade A: 0.019 µg/mL
- IC50, HIV entry inhibition (PhenoSense), isolate 93/TH/057, clade E: 0.023 µg/mL
- IC50, HIV entry inhibition (PhenoSense), isolate 93/TH/305, clade E: 0.021 µg/mL
- IC50, HIV entry inhibition (PhenoSense), isolate 93/UG/067, clade D: 0.016 µg/mL
- IC50, HIV entry inhibition (PhenoSense), isolate 93/UG/070, clade D: 0.011 µg/mL
- IC50, HIV entry inhibition (PhenoSense), isolate 93/UG/077, clade A: 0.012 µg/mL
- IC50, HIV entry inhibition (PhenoSense), isolate 93/UG/082, clade D: 0.016 µg/mL
- IC50, HIV entry inhibition (PhenoSense), isolate 93/UG/086, clade D: 0.015 µg/mL
- IC50, HIV entry inhibition (PhenoSense), isolate 94/UG/103, clade A: 0.021 µg/mL
- IC50, HIV entry inhibition (PhenoSense), isolate 94/UG/105, clade D: 0.021 µg/mL
- IC50, HIV entry inhibition (PhenoSense), isolate 94/UG/114, clade D: 0.015 µg/mL
- IC50, HIV entry inhibition (PhenoSense), isolate 94/UG/117, clade D: 0.017 µg/mL
- IC50, HIV entry inhibition (PhenoSense), isolate 94/UG/118, clade D: 0.02 µg/mL
- IC50, HIV entry inhibition (PhenoSense), isolate 10215-6, clade C: 0.018 µg/mL
- IC50, HIV entry inhibition (PhenoSense), isolate 10362, clade C: 0.02 µg/mL
- IC50, HIV entry inhibition (PhenoSense), isolate 11657-3, clade C: 0.025 µg/mL
- IC50, HIV entry inhibition (PhenoSense), isolate 20635-4, clade C: 0.02 µg/mL
- IC50, HIV entry inhibition (PhenoSense), isolate 21068, clade C: 0.011 µg/mL
- IC50, HIV entry inhibition (PhenoSense), isolate CA1, clade A: 0.011 µg/mL
- IC50, HIV entry inhibition (PhenoSense), isolate CA2, clade A: 0.018 µg/mL
- IC50, HIV entry inhibition (PhenoSense), isolate CA3, clade A: 0.019 µg/mL
- IC50, HIV entry inhibition (PhenoSense), isolate CC1, clade C: 0.016 µg/mL
- IC50, HIV entry inhibition (PhenoSense), isolate CC2, clade C: 0.021 µg/mL
- IC50, HIV entry inhibition (PhenoSense), isolate CC3, clade C: 0.012 µg/mL
- IC50, HIV entry inhibition (PhenoSense), isolate CC4, clade C: 0.013 µg/mL
- IC50, HIV entry inhibition (PhenoSense), isolate CC5, clade C: 0.019 µg/mL
- IC50, HIV entry inhibition (PhenoSense), isolate CC6, clade C: 0.018 µg/mL
- IC50, HIV entry inhibition (PhenoSense), isolate CC7, clade C: 0.013 µg/mL
- IC50, HIV entry inhibition (PhenoSense), isolate CC8, clade C: 0.019 µg/mL
- IC50, HIV entry inhibition (PhenoSense), isolate CC9, clade C: 0.02 µg/mL
- IC50, HIV entry inhibition (PhenoSense), isolate CC10, clade C: 0.015 µg/mL
- IC50, HIV entry inhibition (PhenoSense), isolate CD1, clade D: 0.016 µg/mL
- IC50, HIV entry inhibition (PhenoSense), isolate CF2, clade F: 0.016 µg/mL
- IC50, HIV entry inhibition (PhenoSense), isolate CF3, clade F: 0.024 µg/mL
- IC50, HIV entry inhibition (PhenoSense), isolate CF4, clade F: 0.019 µg/mL
- IC50, HIV entry inhibition (PhenoSense), isolate CF5, clade F: 0.018 µg/mL
- IC50, HIV entry inhibition (PhenoSense), isolate CF6, clade F: 0.018 µg/mL
- IC50, HIV entry inhibition (PhenoSense), isolate CF7, clade F: 0.019 µg/mL
- IC50, HIV entry inhibition (PhenoSense), isolate CF8, clade F: 0.017 µg/mL
- IC50, HIV entry inhibition (PhenoSense), isolate CG1, clade G: 0.018 µg/mL
- IC50, HIV entry inhibition (PhenoSense), isolate CG2, clade G: 0.027 µg/mL
- IC50, HIV entry inhibition (PhenoSense), isolate CG3, clade G: 0.016 µg/mL
- IC50, HIV entry inhibition (PhenoSense), isolate CG4, clade G: 0.013 µg/mL
- IC50, HIV entry inhibition (PhenoSense), isolate CJ1, clade J: 0.018 µg/mL
- IC50, HIV entry inhibition (PhenoSense), isolate CJ2, clade J: 0.019 µg/mL
- IC50, HIV entry inhibition (PhenoSense), isolate CMU02, clade EA: 0.011 µg/mL
- IC50, HIV entry inhibition (PhenoSense), isolate CMU06, clade E: 0.026 µg/mL
- IC50, HIV entry inhibition (PhenoSense), isolate MW/93/959, clade C: 0.019 µg/mL
- IC50, HIV entry inhibition (PhenoSense), isolate MW/93/960, clade C: 0.01 µg/mL
- IC50, HIV entry inhibition (PhenoSense), isolate QZ4589, clade E?: 0.036 µg/mL
- average IC50, HIV entry inhibition (PhenoSense), all viruses of the table: 0.018 µg/mL
